# Source: the RNAGym collection of RNA variant scans (doi:10.1038/ncomms11558)
# B1: mRNA-splicing (parent)
# chain: GAUCCAGAUCUAACUUGGGGUGGCUUUGUCUUCUUCUUUUGCCAAUUCCACUAAUUGUUUGGG
# Variants of: B1
# Test: exon inclusion enrichment score (log2 ratio to wild type); higher = more inclusion; FAS exon 6 minigene, HEK293
row,Variant,exon inclusion enrichment score
1,U47C,-2.08
2,U47G,-1.62
3,U47A,-0.214
4,G41C,-1.66
5,G41A,-0.772
6,G41U,-1.24
7,U31G,-1.2
8,U31C,-0.076
9,U31A,0.242
10,U55C,0.069
11,U55A,0.386
12,U55G,0.117
13,C30G,-0.286
14,C30U,-2.3
15,C30A,-0.973
16,A2U,-0.046
17,A2G,0.511
18,A2C,-0.31
19,C33G,-2.4
20,C33U,-4.54
21,C33A,-3.75
22,U34G,0.283
23,U34C,-0.17
24,U34A,-0.179

row,Variant,exon inclusion enrichment score
1,U52A,0.166
2,U52G,0.635
3,U52C,0.564
4,G19U,0.032
5,G19A,0.892
6,G19C,0.027
7,A8U,-0.416
8,A8G,0.152
9,A8C,0.321
10,U38G,0.274
11,U38C,0.106
12,U38A,-0.025
13,U3G,-0.136
14,U3C,-0.472
15,U3A,-0.683
16,A50C,-3.91
17,A50G,0.131
18,A50U,-1.12
19,U32A,-0.129
20,U32C,-0.05
21,U32G,0.176
22,G7U,-2.07
23,G7C,-0.443
24,G7A,-1.15

row,Variant,exon inclusion enrichment score
1,U21G,-5.29
2,U21A,0.125
3,U21C,0.243
4,U56C,0.215
5,U56A,-0.713
6,C4U,-2.86
7,C4G,-0.794
8,C4A,-2.11
9,U46C,0.336
10,U46G,0.344
11,U46A,0.041
12,G17C,-0.067
13,G17A,-2.56
14,G17U,-0.191
15,A6U,-0.25
16,A6C,-0.522
17,A6G,0.571
18,G20A,0.232
19,G20C,0
20,G20U,-2.17
21,U27G,-0.115
22,U27C,0.72
23,U27A,-0.647
24,U39A,0.361

row,Variant,exon inclusion enrichment score
1,U39G,0.267
2,U39C,0.236
3,C49A,1.46
4,C49U,-0.226
5,C49G,0.869
6,U26G,-0.547
7,U26A,0.39
8,U26C,-0.07
9,U25G,0.284
10,U25C,0.429
11,U25A,0.211
12,U29A,0.257
13,U29G,-3.82
14,U29C,0.119
15,U16A,-0.773
16,U16G,-0.702
17,U16C,0.271
18,U35C,0.127
19,U35G,0.167
20,U35A,-0.045
21,U11A,0.08
22,U11G,0.304
23,U11C,0.559
24,C14A,-0.554

row,Variant,exon inclusion enrichment score
1,C14U,-0.791
2,C14G,-0.135
3,G1A,-3.07
4,G1C,-4.23
5,G1U,-5.1
6,U37C,0.225
7,U37G,0.33
8,U37A,0.26
9,U9A,-0.097
10,U9C,1.28
11,U9G,-0.183
12,A12C,0.251
13,A12G,0.431
14,A12U,-0.405
15,G23U,-0.765
16,G23A,0.238
17,G23C,-0.164
18,U40A,-2.39
19,U40C,0.287
20,U40G,0.275
21,C10G,-0.124
22,C10U,0.024
23,C10A,-0.393
24,G28A,-1.07

row,Variant,exon inclusion enrichment score
1,G28C,-1.84
2,G28U,-1.36
3,G18A,-0.636
4,G18C,0.301
5,G18U,0.258
6,U15G,0.039
7,U15A,-0.077
8,U15C,0.272
9,A13C,1.26
10,A13U,-0.29
11,A13G,-0.194
12,C48G,-1.23
13,C48A,-1.74
14,C48U,-2.35
15,C43A,-0.47
16,C43U,-2.69
17,C43G,0.061
18,A53U,-0.046
19,A53C,-0.152
20,A53G,0.229
21,C42G,-0.175
22,C42A,-0.179
23,C42U,-1.2
24,A45C,-3.69

row,Variant,exon inclusion enrichment score
1,A45U,-1.33
2,A45G,-0.008
3,C24G,-6.71
4,C24A,0.043
5,C24U,-1.64
6,C51A,-1.68
7,C51U,-1.53
8,C51G,0.038
9,A54C,0.187
10,A54G,-0.319
11,A54U,-0.013
12,C36A,-0.688
13,C36G,-0.112
14,C36U,-2.31
15,G22A,-2.09
16,G22C,0.067
17,G22U,-0.589
18,C5U,-4.59
19,C5A,-0.066
20,C5G,-0.076
21,A44G,0.314
22,A44C,-0.731
23,A44U,-1.32
